This passage reports protein production results from a protein production outcome set (Wang et al. 2014).

The nature of this data set: label from the status in PepcDB records.
As for “MNKNLNTFTSMRNDRQLHLYLAWGCPFCHRILASLAITKLDDNISITWMENIKGEAGWKMYFIEDPLFNSDSLKAVYQQLEPTVEHRYSVPLLVDKKNNLLLSTSSPEIVRYVAKGFDDAFSVAYDLIPNKLIKDIDEMNQWLHDKINRAVYLVGFATQQSDYEYKLYELFKALDELEERLKKQLFLFGNQLTESDLYLLATLERFDNIYFCLFKCSLKRIADYPALFRYHNQLRGMESLASTYQPVLTKEHYFMSTMHVLGEARELNPSKIIPIDYYP”, the protein production result is “failed”.
Consider “MSKIADDQNFNDEEENFAKLFKKELEKEETLEKGTIKEGLVVSINENDGYAMVSVGGKTEGRLALNEITDEKGQLLYQKNDPIIVHVSEKGEHPSVSYKKAISQQKIQAKIEELGENYENAIIEGKIVGKNKGGYIVESQGVEYFLSRSHSSLKNDANHIGKRVKACIIRVDKENHSINISRKRFFEVNDKRQLEVSKELLEATEPVLGVVRQITPFGIFVEAKGIEGLVHYSEISHKGPVNPEKYYKEGDEVYVKAIAYDAEKRRLSLSIKATIEDPWEEIQDKLKPGYAIKVVVSNIEHYGVFVDIGNDIEGFLHVSEISWDKNVSHPNNYLSVGQEIDVKIIDIDPKNRRLRVSLKQLTNRPFDVFESKHQVGDVLEGKVATLTDFGAFLNLGGVDGLLHNHDAFWDKDKKCKDHYKIGDVIKVKILKINKKDKKISLSAKHLVTSPTEEFAQKHKTDSVIQGKVVSIKDFGVFINADGIDVLIKNEDLNPLKKDEIKIGQEITCVVVAIEKSNNKVRASVHRLERKKEKEELQAFNTSDDKMTLGDILKEKL”, for which the protein production entry is recorded as “failed”.
Then “MLRRSFSSYLRQGLLLAFLAAFSALWLAQAHAERRAAIVVGNSEYPFAPLTNPRNDAKLIANTLTELKFDVLLFYDVKKSAEKDLNDAIRAHLIGADMAVFYYAGHALQYNGQNLLLPVDTRISSAKEVAADAMRLNDLIDIVKNDPVGVKVFILDACRNNPVAKEKGLQQGLAYTEAGSGQVLVAFATSAGEVAYDGTGINSPYSSALANALLMPNLDVYDTFRTVRGDVRQATGGSQIPWITGSIETKFVFRQGDAGKQVAQAEHAAEADGGLTIDEVLWSFISDSQNPEDFERFVKVFPNSRYAAEATEKSRFKVAALTKRGLYVNGNLVSSSIAATAPIGASDKALSEEFVFQQAGERAVSETFRIWPSNLPDTQRGMRTMVTDCDLYAADPNDPQRAVPGVTNGLVNVRDALRACAFALAADINNPRLQFQFGRVLEIARRYSWAEHFYELAGNQQYSAALINMGYMARVGMGREIDYGRAFDPYVRAAALGNLRARTDIGSAYIAGQGVPKLPEEGVLWYRLAASSGWANAITALGDAYRLGTGVKQDYVQAASLYSAAADTGQIDAMANLGQAYLAGEGVKKDVPRGLELLQRANDMGNRYAPYFMAQLYLKGDRKLPADPRRALALLELSANRGNEYAYVRLAWGHRDGVFTGGKPDLRRAYFDASLAARLRADQGEQAKAEIAKKIDPATRKEIDGEVELYIKQNGP”, with “failed”.
As to “MAIARHRSFSRAAIELGVSASALSHALKGLETRLGVRLLNRTTKSVTPTAAGEELVQSVLQPFDTIEGALESLNRYRNTPTGRIRINAAVEAANLLLAPVMPAFMDRYPDIEIDIVASNRMVDVTDAGFDAGIRYGGTVPEDMVARRLSADIRWVIAASPDYLERYGTPEHPDDLLHHRCISNRLGDDRVYRWELARDGETYQMTVPGSVTVNHAETGLVAVLGGAGLMYFPEPLVAPYVKDGRLRLVLTEWSPLEEGFHIYYSSRRQLPTGLRLLIEFIQEARPLGL”, the protein production entry is recorded as “failed”.
In the case of “MLKIFSTQLSGYFSRVSQKEEMNIEDSARLLAQALVGEGFIYLHGTNEMEGVVAEALFGAEPMKQAKRLFENGKEVEVTSADRVLLISRFSTDEEVVAIAKKLQADGHSIVGISAIQEGNESLEQYTDVHIDTKLLKGLIPDDEGNRYGFPSLMIALFAYHGIKFTIDEMLNEY”, the protein production result is listed as “not failed”.
Then “MERKKLIAKFVEIASEKMGKDLETVDEENTFKELGFDSIDVIDLVMFFEDEFALRIEDEEISKIRKVKDLIDIVIKKLEEIDDEVSEG”, with “not failed”.
In the case of “MKVNTWFGVLELDSNGKTLSSEVFPKDIRELALRSLSLRESRQNLPPEGFDLKTAALECGFTESLSEYYSLLHKVTLETVKLQVSQALTPDQRIIQAVEALDDINETTNSLSERLFEWYGGYFPESGLSGEELAVFISRYGSRENLPPEDPHYLKAKNSMGAKLEAADEVLLKGLAESVCSLYERRKQIEAYIESSMEILAPNLALLAGPMLGARLISIAGSLEKLAAFPSSTIQVIGASKALFKHLRSRAPSPKHGIIYSHPLINTSPWWVRGKVARALAAKLSLAARIDFYSAKRNPSLENELEEKIRKIRAENPRPPQKRQEIRAKPKKKRRKLEHHHHHH”, the protein production result was “not failed”.
In the case of “MVNTRTRMSAIVATLGLVGSLALATASADESRTSGSAAQIALTEVARAQNPTAGAAGPQDTVWIAERAGTVRVLGDDGLGEPVLDISDETTTDGERGLLGLAFDERFAHLYLSYTDLEGTSTVDEFAVQDGTVREDTRRTVLTQEQPESNHNGGAITFGPDGYLYIALGDGGGGGDPQGNGQKLDTLLGKLLRIDPQGGDPYAIPEDNPFADDPDARGEIWSYGLRNPWRFSFDAGSGDLLIGDVGQSDWEEIDWAPASSPGGENYGWSQMEGTHPFRGGTEPANHVPPIHEYDRTGLGCSVTGGYVYRGEAVPGLAGQYVYSDYCDGTLRSLEIEDGRVTGEHDLGVNGGEVVSFAQDGDGELYVLAIGGTVSRVDPA”, the protein production result was “failed”.
With “MRPAAARVLLGAFAFAVVADLASQALGSDTGHLLAKPLLMPLLAAYAAVRGGPRLLVVALLLGWAGDVLLLSDADPAFLAGMSSFAAGHVCYLVLFARHGRTRARGALLAGGYGLVLVTTVALLWPGLPAGLRVPVVGYSLLLTAMAYGATRLGPVAGLGGALFLLSDTLIATGVADWPQLPRPDFWIMLTYAAGQYLLVRGVTDTLGAPTAPAAAYGEVRSTTP”, the protein production result is reported as “failed”.
To “MLTTFLATVIGWYLVIVSLFLLFHNEHAKSAMAEIIAHRGSQLIMAIVTLITGLLLVVSHNIWVMGWPVVITLFAWLVLLGGLIRFLCPDTAVRIGQSFVDNPMRLKIAAVIFFIIGLFLLFNVYYVYLK” belongs “failed”; to “LQQQEEETYADACDEFLDPIMSTLMCDPVVLPSSRVTVDRSTIARHLLSDQTDPFNRSPLTMDQIRPNTELKEKIQRWLAERKQQ”, “not failed”; to “MPTPADDLVVIGKIVSVYGIRGEVKVYSFTDPLDNLLDYRRWTLRRDGEIRQAELVRGRLHGKVLAAKLKGLDDREEARTFTGYEICIPRSELPSLEEGEYYWHQLEGLKVIDQGRQLLGVIDHLLETGANDVMVVKPCAGSLDDRERLLPYTGQCVLSIDLAAGEMRVDWDADF”, “not failed”.
Turning to “MSLQENISVTDSYSTGNAAQAMLEKLLQIYDVKMLVAQLNGVGENHWSAAILKRALANDSAWHRLSEKEFAHLQTLLPKPPEHHPHYAFRFIDLFAGIGGIRRGFESIGGQCVFTSEWNKHAVRTYKANHYCDPATHHFNEDIRDITLSHQEGVSDEAAAEHIRQHIPEHDVLLAGFPCQPFSLAGVSKKNSLGRAHGFACDTQGTLFFDVVRIIDARRPAMFVLENVKNLKSHDKGKTFRIIMQTLDELGYDVADAEDNGPDDPKIIDGKHFLPQHRERIVLVGFRRDLNLKADFTLRDISECFPAQRVTLAQLLDPMVEAKYILTPVLWKYLYRYAKKHQARGNGFGYGMVYPNNPQSVTRTLSARYYKDGAEILIDRGWDMATGEKDFDDPLNQQHRPRRLTPRECARLMGFEAPGEAKFRIPVSDTQAYRQFGNSVVVPVFAAVAKLLEPKIKQAVALRQQEAQHGRRSREGHHHHHH”, the protein production entry was “not failed”.
To “MPVCILLLRFRDDVHNERFYTLVGIFIVGALCLMILGGTFFYIEYKRAQKQTFVMFFKGSLKGLVTTAPVTYRGVKIGEVKVIEITENKEHSKVLIPVYVQFFVERTYGFSQDPIHLLIDNGYVANITKPNLLTGVAEIELIKPTPAVKYKQTYYHSYPVFPTHNSAEKYTSMEEAFEAAKKAFEDVSELVRSKEIQDTLEAIQKVSENLGQLASSLNQDVPSVVAYLNQSLKQITSAAYSTQNLTDYLSRYPESLLRGKRLEHHHHHH” belongs “failed”.
Turning to “MSLWLTHPLFLPSLIVGVTIVLWATSLLPEFITALLFFAAAMMAKIAPPEVIFGGFASSAFWLVFSGFVLGIAIRKTGLADRAAQALSARLTDSWPRMVASVVLLSYALAFVMPSNMGRIALLMPIVAAMARRAGIADGSRGWFGLALAVGFGTFQLSATILPANVPNLVMSGAAEGSYGIHLNYVPYLLLHTPVLGWLKGAVLVALICWLFPGKPHPPRDLAPLPPMSRDEKRLAWLLAVVLSLWVTESWHGVGPAWTGLAAAVITLLPRVGFINGEEFASGVNMRTCIYVAGILGLAIAVTQTGIGGAVGNALLQVMPLDKDNPFTSFLALTGITSALNFIMTANGVPALYTTFAQSFADATGFPLLSVIMIQVLGYSTPLLPYQASPIVVAMGLGKVPARAGMQLCLALAAVSYLILLPLDYAWYQLLGKL”, the protein production entry is on record as “failed”.
In the case of “MIGLVPSPIELSYISDISVPKAASAPAYYDLRALNRLTSVKDQGTAGTCWAFASYSSLESYLKPGEDWDFSENNMKNLLSSAYQEGFDRDPNDGGNRIQAAAYLARWSGPVKESDDPYSTFSGVSPADLPIKKHVQDVIFIPDRADPLDNEAIKWAVQNYGAVYTTMHYNNTFYSPEYYSYYFNGTSEPNHAVAIVGWDDSYDRNNFSKVPPGNGAFIMKNSWGPEWGDKGYFYVSYYDSKAGNGSSVFTAENPENYEYIYQYDPFGWVSSMGYSKPLAWVSNVFTAKSDEVLKAVSFYTTDSNCNYEIYIYTDPVSGPINPAGPVLSKNGTCLTAGYHTIPLDSEVRLIAGQKFSVVIKLTNPSYRYLIPLEKPKDSWSSKARANTGESFISSSGSTWTDVNTSYANSNVCIKAFTNSVLLPIANFSSNITEGYAPLSVQFRDLSGHSTDRTWDFENDGNIDSVEANPIHLFSAPGSLEHHHHHH”, the protein production result is given as “failed”.
On to “MTMAVGTFKQSRFQLPLPRLSVMDRYLFVELFLPFIFGMGMFTSLALSIGTLFDLVRRVTESGLPMDIAVKILFLKMPEFVVLAFPMSMLLASLMAYSRLSSDSELIALRSIGVSIYRLVVPALLFGIVVTGIAFVFNDRITPAASYEALATLDRAIHQDRPPRQEQNIIYPEYGMVRQPDGNEKNILKRLFYAEEFNGSEMKGLTILDRTQSGVNQVLTAERASWNISENTWDFYDGTVYLIAPDGSYRNIVRFRHQQLALPRAPLDLASQERKDGEMTIAQSRRYLEVLRLSGDDKKVRKLEVRIQKKYALPFVCFVFGLIGAAIGVRPQNTNKATSFGICVGLIFFYYLLSFLSESMGIWGALDPFTAAWLPNFLGLIAGTILLVQSSRLR”, for which the protein production result is on record as “failed”.
Then “MPNQSNESRPFHKDLESILYAHVPLPMFTMDEEGALLNMNEGAMETLRVDWEQNQRSSVFQLFESECRESLYLALATVNKISQVEKVELIKRNGETFETFCLSLQLLPDKQVIAFIAPLIDKGMDPLTGVPIRQEVPRLMERTFQENQAETYVLFLINLDRFKLVNDSLGEGYGDQVLQTLVRRLLWQLPNQQWIARVSGDEFIACAAIKGELPKKETLATYISSIIQQPFQVDEVQFTMTASIGAAVYPMDGKSVEMIWNSLERALRHAKARGGNCVSWFCQELKDEWIHPFRLENDLRRAVENQELELYFQPIFETTTGEHCGEEVLVRWNHPALGVLGPNFFIPVAEEIGLIGVVGKWVLDEACKQKALLIEKEASSVPMSVNLSLRQFLQPDIVDMILDSLNKYGLDPSLLEVEVTERITIDMNRAMKVLQKLRAQGIRVSLDDFGTGYSSLQYISQLPIQKLKIDKSFIAEIGVNSQVEAIISMIIHLGHELDLTVVAEGVETEKQLSFLKEKKCDTVQGYYHAKPLTFSEFKKYLLS”, with “failed”.
